The record followed here is patent US20220073621A1 (EUCURE BEIJING BIOPHARMA, published 2022).

Residue numbers refer to the chain shown, from its start. Names and notes keep the numbering of the source.

The target in this experiment is T1, hPD-L1-His (human, UniProt Q9NZQ7 19-238).
T1 construct: Bought protein; also called hPD-L1-His (manufactured by Edison); not shown: His tag
Briefly: SPR (Biacore T200), antibody on Protein A chip, hPD-L1-His injected, 1:1 fit. The protocol: Subsequently, the binding affinity of the anti-PD-L1 chimeric antibody, humanized antibody, and marketed control antibody to hPD-L1-His (manufactured by Edison) were determined by surface plasmon resonance (Biacore T200 biosensor, Biacore, INC, Piscataway N.J.) equipped with pre-immobilized Protein A sensor chips.
The detection results were read after the chip was regenerated with pH 2.0 glycine (30 μl/min, 10-20 s). Kinetic association rates (kon) and dissociation rates (koff) were obtained simultaneously by fitting the data globally to a 1:1 Langmuir binding model (Karlsson, R. Roos, H. Fagerstam, L. Petersson, B., 1994. Methods Enzymology 6. 99-110) using Biacore T200 Evaluation Software 3.0. Affinities were deduced from the quotient of the kinetic rate constants (KD=koff/kon).

T1 sequence (Q9NZQ7 19-238 limits assumed): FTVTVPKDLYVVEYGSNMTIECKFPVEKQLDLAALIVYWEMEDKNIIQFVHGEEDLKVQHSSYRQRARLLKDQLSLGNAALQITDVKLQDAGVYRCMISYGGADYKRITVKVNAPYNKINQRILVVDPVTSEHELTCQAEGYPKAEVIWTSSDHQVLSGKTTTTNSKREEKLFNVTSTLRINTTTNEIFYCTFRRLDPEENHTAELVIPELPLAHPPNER

B1: 7E4-H2K2-IgG1 (antibody, V domains shown)
VH: QVQLVQSGAEVKKPGASVKVSCKASGFKFTDYAIHWVRQAPGKSLEWMGVISIYYGEASYNQKFKDRVTLTVDTSASTAYMELSSLRSEDTAVYYCAREDYYGSSSYFDYWGQGTLVTVSS
VL: DNVLTQSPSFLSASVGDRVTMTCSASSSVSSSYLHWYQQKPGASPKPLIHRTSNLASGVPSRFSGSGSGTEFTLTISSLQPEDFATYYCQQWSGYPYTFGGGTKLEIK
The molecule B1 registered a Kd of 21.9 nM, a koff of 0.0027 s⁻¹ and a kon of 123000 M⁻¹ s⁻¹.

B2: 23-2A6-mHvKv-IgG1-N297A (antibody, V domains shown)
VH: QVQLKESGPGLVAPSQSLSITCTVSGFSLTSYDISWIRQPPGKGLEWLGAIWTGGGTNYNSAFMSRLSISKDNSKSQVFLKMNSLQTDDTAIYYCVRDPYYYAMDYWGQGTSVTVSS
VL: DIQMNQSPSSLSASLGDTITITCHASQNLNVWLSWYQQKPGNIPKLLIYKASNLHTGVPSRFSGSGSGTGFTLTISSLQPEDIATYYCQQGQSYPRTFGGGTKLEIK
B2: the Kd was 4.64 nM, the koff came to 0.00266 s⁻¹ and the kon was 573000 M⁻¹ s⁻¹.

B3: 3F2-H2K2-IgG1 (antibody, V domains shown)
VH: DVQLQESGPGLVKPSETLSLTCTVSGYSITSGYNWHWIRQFPGNGLEWMGYIHHSSITNYNPSLKSRITISRDTSKNQFSLKLSSVTAADTATFYCAREGYDYDWFAYWGQGTLVTVSS
VL: DIVLTQSPDFQSVTPKEKVTLSCRASQSISNNLHWYQQKPDESPKLLIKYASQSISGIPSRFSGSGSGTDFTLTINSVEAEDFAMYFCQQSKSWPFTFGQGTRLEIK
With B3, binding was characterised by a dissociation constant (Kd) of 0.81 nM, the koff was determined as 0.000946 s⁻¹ and the kon stood at 1.17e+06 M⁻¹ s⁻¹.

B4: 3F2-H1K2-IgG1 (antibody, V domains shown)
VH: B3 VH with D1Q, F94Y
VL: B3 VL
Turning to B4, binding was characterised by a dissociation constant (Kd) of 0.69 nM, the koff was found to be 0.000732 s⁻¹ and the kon came out at 1.06e+06 M⁻¹ s⁻¹.

B5: 3F2-H1K3-IgG1 (antibody, V domains shown)
VH: B3 VH with D1Q, F94Y
VL: B3 VL with F10T, K18S, P40S, D41H
On to B5, for which the Kd came to 0.805 nM, the koff worked out at 0.000874 s⁻¹ and the kon was 1.09e+06 M⁻¹ s⁻¹.

B6: 3F2-H3K2-IgG1 (antibody, V domains shown)
VH: B3 VH with A89E
VL: B3 VL
Take B6: the Kd turned out to be 0.623 nM, the koff stood at 0.000753 s⁻¹ and the kon was found to be 1.21e+06 M⁻¹ s⁻¹.

B7: 3F2-H1K1-IgG1 (antibody, V domains shown)
VH: B3 VH with D1Q, F94Y
VL: B3 VL with L21I, S22T
Regarding B7, the affinity, expressed as Kd, was 0.787 nM; the koff amounted to 0.000772 s⁻¹; the kon turned out to be 981000 M⁻¹ s⁻¹.

B8: 3F2-H2K3-IgG1 (antibody, V domains shown)
VH: B3 VH
VL: B3 VL with F10T, K18S, P40S, D41H
Molecule B8 registered a Kd of 0.758 nM, a koff of 0.000881 s⁻¹ and a kon of 1.16e+06 M⁻¹ s⁻¹.

B9: 3F2-H4K3-IgG1 (antibody, V domains shown)
VH: B3 VH with G45K, S80F, K82Q, A89E
VL: B3 VL with F10T, K18S, P40S, D41H
Molecule B9 came in with a Kd of 0.502 nM, a koff of 0.000696 s⁻¹ and a kon of 1.39e+06 M⁻¹ s⁻¹.

B10: 3F2-H3K3-IgG1 (antibody, V domains shown)
VH: B3 VH with A89E
VL: B3 VL with F10T, K18S, P40S, D41H
B10 displayed a Kd of 0.625 nM, a koff of 0.000827 s⁻¹ and an on-rate constant (kon) of 1.32e+06 M⁻¹ s⁻¹.

B11: 3F2-H4K2-IgG1 (antibody, V domains shown)
VH: B3 VH with G45K, S80F, K82Q, A89E
VL: B3 VL
In the case of B11, the Kd came to 0.475 nM, the koff is 0.000617 s⁻¹ and the kon came out at 1.3e+06 M⁻¹ s⁻¹.

B12: 3F2-H2K1-IgG1 (antibody, V domains shown)
VH: B3 VH
VL: B3 VL with L21I, S22T
The molecule B12 displayed a Kd of 0.7 nM, a koff of 0.000792 s⁻¹ and a kon of 1.13e+06 M⁻¹ s⁻¹.

B13: 3F2-H4K1-IgG1 (antibody, V domains shown)
VH: B3 VH with G45K, S80F, K82Q, A89E
VL: B3 VL with L21I, S22T
B13 showed a Kd of 0.471 nM, a koff of 0.000626 s⁻¹ and an on-rate constant (kon) of 1.33e+06 M⁻¹ s⁻¹.

B14: 3F2-H3K1-IgG1 (antibody, V domains shown)
VH: B3 VH with A89E
VL: B3 VL with L21I, S22T
B14 gave a Kd of 0.699 nM, a koff of 0.000793 s⁻¹ and a kon of 1.13e+06 M⁻¹ s⁻¹.

B15: 33-10C9-mHvKv-IgG1-N297A (antibody, V domains shown)
VH: QVQLQQPGAELVKPGSSVKLSCKASGYTFTTYYIYWVKQRPGQGLEWIGGINPYNGGTSFNEKFESKATLTVDISSSTAFMQLSSLTSEDSAVYYCTRDGNYVDYWGQGTTLTVSS
VL: QIVLTQSPAIMSASPGEKVTITCSASSTVSYVHWLQQKPDTSPKLWIYSTSNLASGVPARFSGSGSGTSYSLTISRMEAEDAATYYCQQRSSSPPTFGSGTKLEIK
The molecule B15 came in with a Kd of 1.6 nM, a koff of 0.000196 s⁻¹ and a kon of 122000 M⁻¹ s⁻¹.

B16: 6A11-H2K3-IgG1 (antibody, V domains shown)
VH: EVQLVESGGGLVQPGGSLRLSCAASGFTFSSFGMHWVRQAPGKGLEWVSYISSGSNTIYYADTVKGRFTISRDNAKNSLYLQMNSLRAEDTAVYYCTRNGYDGWYAMDYWGQGTTVTVSS
VL: EIVLTQSPATLSASPGERATLSCSASSSVSYIHWFQQKPGQSPRRWIYDTSKLASGIPARFSGSGSGTDYTLTISSMEPEDFATYYCQQWSTNPFTFGQGTKLEIKR
For B16, the Kd was 8.07 nM, the koff stood at 0.0013 s⁻¹ and the kon came to 162000 M⁻¹ s⁻¹.

B17: 6A11-H4K3-IgG1 (antibody, V domains shown)
VH: B16 VH with L18R, S49A, A75P, V93I
VL: B16 VL
With B17, the affinity, expressed as Kd, was 7.09 nM; the koff is 0.00165 s⁻¹; the kon is 233000 M⁻¹ s⁻¹.

B18: 6A11-H1K3-IgG1 (antibody, V domains shown)
VH: B16 VH with T97A
VL: B16 VL
The molecule B18 had a Kd of 7.8 nM, a koff of 0.00113 s⁻¹ and a kon of 145000 M⁻¹ s⁻¹.

B19: 6A11-H3K3-IgG1 (antibody, V domains shown)
VH: B16 VH with L18R, S49A
VL: B16 VL
The molecule B19 displayed a Kd of 4.91 nM, a koff of 0.0013 s⁻¹ and a kon of 265000 M⁻¹ s⁻¹.

B20: 6A11-H1K4-IgG1 (antibody, V domains shown)
VH: B16 VH with T97A
VL: B16 VL with D69S, F82A
As for B20, the Kd stood at 8.29 nM, the koff was determined as 0.00124 s⁻¹ and the kon worked out at 149000 M⁻¹ s⁻¹.

B21: 6A11-H3K4-IgG1 (antibody, V domains shown)
VH: B16 VH with L18R, S49A
VL: B16 VL with D69S, F82A
Consider B21, for which the dissociation constant (Kd) came to 6.52 nM, the koff is 0.00168 s⁻¹ and the kon was determined as 258000 M⁻¹ s⁻¹.

B22: 6A11-H4K4-IgG1 (antibody, V domains shown)
VH: B16 VH with L18R, S49A, A75P, V93I
VL: B16 VL with D69S, F82A
With B22, binding was characterised by a dissociation constant (Kd) of 9.59 nM, the off-rate (koff) is 0.002 s⁻¹ and the kon stood at 208000 M⁻¹ s⁻¹.

B23: 6A11-H2K4-IgG1 (antibody, V domains shown)
VH: B16 VH
VL: B16 VL with D69S, F82A
In turn, B23 yielded a Kd of 7.01 nM, a koff of 0.00153 s⁻¹ and a kon of 218000 M⁻¹ s⁻¹.

B24: 08-3F2-mHvKv-IgG1 (antibody, V domains shown)
VH: DVQLQESGPDLVKPSQTLSLTCTVTGYSITSGYNWHWIRQFPGNKLEWMGYIHHSSITNYNPSLKSRISITRDTSKNQFFLQLSSVTTEDTATFYCAREGYDYDWFAYWGQGTLVTVSA
VL: DIVLAQSPATLSVTPGDSVSLSCRASQSISNNLHWYQQKSHESPRLLIKYASQSISGIPSRFSGSGSGTDFTLSINSVETEDFGMYFCQQSKSWPFTFGSGTRLEIK
Molecule B24 returned a Kd of 0.266 nM, a koff of 0.00043 s⁻¹ and a kon of 1.62e+06 M⁻¹ s⁻¹.

B25: 07-6A11-mHvKv-IgG1 (antibody, V domains shown)
VH: DVQLVESGGGLVQPGGSRKLSCAASGFTFSSFGMHWVRQAPEKGLEWVAYISSGSNTIYYADTVKGRFTISRDNPKNTLFLQMTSLRSEDTAIYYCTRNGYDGWYAMDYWGQGTSVTVSS
VL: QIVLTQSPAIMSASPGEKVTMTCSASSSVSYIHWFQQKSGTSPKRWIYDTSKLASGVPARFSGRGSGTSYSLTISSMEAEDAATYYCQQWSTNPFTFGSGTKLEIK
The molecule B25 yielded a Kd of 3.57 nM, a koff of 0.0009 s⁻¹ and a kon of 252000 M⁻¹ s⁻¹.

B26: 17-7E4-mHvKv-IgG1 (antibody, V domains shown)
VH: QVQLQQSGAELVRPGVSVKISCKGSGFKFTDYAIHWVKQSHAKSLEWIGVISIYYGEASYNQKFKDKATLTVDTSSSTAYMELARLTSEDSAIYYCAREDYYGSSSYFDYWGQGTALTVSS
VL: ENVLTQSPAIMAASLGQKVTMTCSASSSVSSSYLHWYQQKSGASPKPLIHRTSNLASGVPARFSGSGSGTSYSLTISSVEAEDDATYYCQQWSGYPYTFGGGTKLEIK
On to B26, for which the affinity, expressed as Kd, was 5.33 nM; the koff stood at 0.000805 s⁻¹; the on-rate constant (kon) is 151000 M⁻¹ s⁻¹.

A word on the Kd: it is a measure of binding affinity in units of concentration. Lower therefore signals higher affinity. In general, koff refers to the first-order rate constant of dissociation. A lower koff goes with a long-lived complex. One may read the kon as a measure of how fast the partners come together.
